Assay results taken from article PMC10786891, “Massively parallel profiling of RNA-targeting CRISPR-Cas13d”.

T1: EsCas13d, nuclease-dead (Eubacterium siraeum, UniProt B0MS50, R295A;H300A;R849A;H854A)
T1 sequence: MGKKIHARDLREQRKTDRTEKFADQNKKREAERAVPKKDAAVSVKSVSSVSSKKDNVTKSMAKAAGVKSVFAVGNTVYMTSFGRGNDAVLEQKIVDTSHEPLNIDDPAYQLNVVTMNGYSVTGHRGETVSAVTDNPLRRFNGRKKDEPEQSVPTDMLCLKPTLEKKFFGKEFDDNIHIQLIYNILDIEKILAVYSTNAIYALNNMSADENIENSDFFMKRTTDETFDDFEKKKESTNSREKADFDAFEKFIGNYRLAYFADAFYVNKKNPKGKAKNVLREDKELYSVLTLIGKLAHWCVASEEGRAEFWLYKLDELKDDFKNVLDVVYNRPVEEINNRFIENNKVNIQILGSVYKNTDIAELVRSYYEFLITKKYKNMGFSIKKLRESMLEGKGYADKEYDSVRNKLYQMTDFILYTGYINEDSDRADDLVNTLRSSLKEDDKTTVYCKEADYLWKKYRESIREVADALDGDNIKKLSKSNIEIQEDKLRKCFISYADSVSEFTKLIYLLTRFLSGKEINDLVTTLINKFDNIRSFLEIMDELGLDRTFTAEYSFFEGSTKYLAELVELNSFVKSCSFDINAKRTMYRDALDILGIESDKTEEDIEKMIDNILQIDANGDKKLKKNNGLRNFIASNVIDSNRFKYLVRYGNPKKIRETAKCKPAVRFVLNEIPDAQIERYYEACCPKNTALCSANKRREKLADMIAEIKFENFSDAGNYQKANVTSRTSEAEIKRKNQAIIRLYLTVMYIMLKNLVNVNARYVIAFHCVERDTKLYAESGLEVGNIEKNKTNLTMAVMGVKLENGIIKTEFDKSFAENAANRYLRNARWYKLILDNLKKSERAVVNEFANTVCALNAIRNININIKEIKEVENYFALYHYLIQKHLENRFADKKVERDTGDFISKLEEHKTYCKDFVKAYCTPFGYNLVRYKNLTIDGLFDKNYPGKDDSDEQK


Each binder was assayed against T1, EsCas13d, nuclease-dead (assay: crRNA (strand 1, pre-loaded); Mg2+; 40 mM Tris-HCl pH 7.5, 150 mM NaCl, 6 mM MgCl2, 1 mM DTT, 0.1% Tween-20, 0.2 mg/ml BSA; 25 C; 10 min per concentration, then washed). Conditions: tags: His6-TwinStrep-SUMO cleaved; N-terminal SNAP kept (SNAP-Surface 488); label: 3' end held by stalled T7 RNA polymerase.

Row | Binder | Kd [nM]
1 | target 1 A1C,A14G (mixed) RNA 1: CACCCGUGCAAAAAUGCAGGGGUCUAAAACUGAGCGGAUAACCUCUCUAUGG RNA 2: GGGAAUGGAUCCACAUCUACGAAUUCGUACCAUAGAGGGGUUAUCCGCUCCCCGAGAUCGGAAGAGCACACGU | 25 ± 4
2 | target 1 C4G,C7U (mixed) RNA 1: CACCCGUGCAAAAAUGCAGGGGUCUAAAACUGAGCGGAUAACCUCUCUAUGG RNA 2: GGGAAUGGAUCCACAUCUACGAAUUCGUACCAUAGAGAGGUUAUUCGGUCACCGAGAUCGGAAGAGCACACGU | 3.78 ± 0.31
3 | target 2 MT 5'PFS ACA 3'PFS CAG (mixed) RNA 1: CACCCGUGCAAAAUUGCAGGGGUCUAAAACCUUCUCCAAAUUGUUUCAUCCU RNA 2: GGGAAUGGAUCCACAUCUACGAAUUCACAAGGAUGAAACAAUUUGGAGAAGCAGAGAUCGGAAGAGCACACGU | 4.8 ± 0.9
4 | target 2 MT 5'PFS UCU 3'PFS AGC (mixed) RNA 1: CACCCGUGCAAAAUUGCAGGGGUCUAAAACCUUCUCCAAAUUGUUUCAUCCU RNA 2: GGGAAUGGAUCCACAUCUACGAAUUCUCUAGGAUGAAACAAUUUGGAGAAGAGCAGAUCGGAAGAGCACACGU | 11 ± 2.3
5 | target 2 MT 5'PFS GGU 3'PFS AGG (mixed) RNA 1: CACCCGUGCAAAAUUGCAGGGGUCUAAAACCUUCUCCAAAUUGUUUCAUCCU RNA 2: GGGAAUGGAUCCACAUCUACGAAUUCGGUAGGAUGAAACAAUUUGGAGAAGAGGAGAUCGGAAGAGCACACGU | 14.4 ± 1.3
6 | target 2 MT 5'PFS GGA 3'PFS AGC (mixed) RNA 1: CACCCGUGCAAAAUUGCAGGGGUCUAAAACCUUCUCCAAAUUGUUUCAUCCU RNA 2: GGGAAUGGAUCCACAUCUACGAAUUCGGAAGGAUGAAACAAUUUGGAGAAGAGCAGAUCGGAAGAGCACACGU | 7.3 ± 0.7
7 | target 2 MT 5'PFS AAA 3'PFS AGC (mixed) RNA 1: CACCCGUGCAAAAUUGCAGGGGUCUAAAACCUUCUCCAAAUUGUUUCAUCCU RNA 2: GGGAAUGGAUCCACAUCUACGAAUUCAAAAGGAUGAAACAAUUUGGAGAAGAGCAGAUCGGAAGAGCACACGU | 4.2 ± 1.5
8 | target 2 MT 5'PFS AAC 3'PFS CGG (mixed) RNA 1: CACCCGUGCAAAAUUGCAGGGGUCUAAAACCUUCUCCAAAUUGUUUCAUCCU RNA 2: GGGAAUGGAUCCACAUCUACGAAUUCAACAGGAUGAAACAAUUUGGAGAAGCGGAGAUCGGAAGAGCACACGU | 3.2 ± 0.5
9 | target 2 MT 5'PFS GGA 3'PFS AGA (mixed) RNA 1: CACCCGUGCAAAAUUGCAGGGGUCUAAAACCUUCUCCAAAUUGUUUCAUCCU RNA 2: GGGAAUGGAUCCACAUCUACGAAUUCGGAAGGAUGAAACAAUUUGGAGAAGAGAAGAUCGGAAGAGCACACGU | 8.7 ± 1.1
10 | target 2 MT 5'PFS CUC 3'PFS CGA (mixed) RNA 1: CACCCGUGCAAAAUUGCAGGGGUCUAAAACCUUCUCCAAAUUGUUUCAUCCU RNA 2: GGGAAUGGAUCCACAUCUACGAAUUCCUCAGGAUGAAACAAUUUGGAGAAGCGAAGAUCGGAAGAGCACACGU | 1.62 ± 0.31
11 | target 2 MT 5'PFS GGA 3'PFS AGG (mixed) RNA 1: CACCCGUGCAAAAUUGCAGGGGUCUAAAACCUUCUCCAAAUUGUUUCAUCCU RNA 2: GGGAAUGGAUCCACAUCUACGAAUUCGGAAGGAUGAAACAAUUUGGAGAAGAGGAGAUCGGAAGAGCACACGU | 8.4 ± 0.6
12 | target 2 MT 5'PFS CUC 3'PFS CGC (mixed) RNA 1: CACCCGUGCAAAAUUGCAGGGGUCUAAAACCUUCUCCAAAUUGUUUCAUCCU RNA 2: GGGAAUGGAUCCACAUCUACGAAUUCCUCAGGAUGAAACAAUUUGGAGAAGCGCAGAUCGGAAGAGCACACGU | 2.25 ± 0.29
13 | target 2 MT 5'PFS UUG 3'PFS AAC (mixed) RNA 1: CACCCGUGCAAAAUUGCAGGGGUCUAAAACCUUCUCCAAAUUGUUUCAUCCU RNA 2: GGGAAUGGAUCCACAUCUACGAAUUCUUGAGGAUGAAACAAUUUGGAGAAGAACAGAUCGGAAGAGCACACGU | 9.8 ± 1.2
14 | target 2 MT 5'PFS GGA 3'PFS AGU (mixed) RNA 1: CACCCGUGCAAAAUUGCAGGGGUCUAAAACCUUCUCCAAAUUGUUUCAUCCU RNA 2: GGGAAUGGAUCCACAUCUACGAAUUCGGAAGGAUGAAACAAUUUGGAGAAGAGUAGAUCGGAAGAGCACACGU | 14.1 ± 1.4
15 | target 2 MT 5'PFS UUG 3'PFS AAU (mixed) RNA 1: CACCCGUGCAAAAUUGCAGGGGUCUAAAACCUUCUCCAAAUUGUUUCAUCCU RNA 2: GGGAAUGGAUCCACAUCUACGAAUUCUUGAGGAUGAAACAAUUUGGAGAAGAAUAGAUCGGAAGAGCACACGU | 9.8 ± 1.2
16 | target 2 MT 5'PFS UUU 3'PFS CAG (mixed) RNA 1: CACCCGUGCAAAAUUGCAGGGGUCUAAAACCUUCUCCAAAUUGUUUCAUCCU RNA 2: GGGAAUGGAUCCACAUCUACGAAUUCUUUAGGAUGAAACAAUUUGGAGAAGCAGAGAUCGGAAGAGCACACGU | 5 ± 0.4
17 | target 2 MT 5'PFS AAA 3'PFS AGG (mixed) RNA 1: CACCCGUGCAAAAUUGCAGGGGUCUAAAACCUUCUCCAAAUUGUUUCAUCCU RNA 2: GGGAAUGGAUCCACAUCUACGAAUUCAAAAGGAUGAAACAAUUUGGAGAAGAGGAGAUCGGAAGAGCACACGU | 4.7 ± 0.9
18 | target 2 MT 5'PFS UUU 3'PFS CAA (mixed) RNA 1: CACCCGUGCAAAAUUGCAGGGGUCUAAAACCUUCUCCAAAUUGUUUCAUCCU RNA 2: GGGAAUGGAUCCACAUCUACGAAUUCUUUAGGAUGAAACAAUUUGGAGAAGCAAAGAUCGGAAGAGCACACGU | 7.6 ± 1
19 | target 2 MT 5'PFS GAU 3'PFS UUU (mixed) RNA 1: CACCCGUGCAAAAUUGCAGGGGUCUAAAACCUUCUCCAAAUUGUUUCAUCCU RNA 2: GGGAAUGGAUCCACAUCUACGAAUUCGAUAGGAUGAAACAAUUUGGAGAAGUUUAGAUCGGAAGAGCACACGU | 47 ± 13
20 | target 2 MT 5'PFS AAC 3'PFS CGC (mixed) RNA 1: CACCCGUGCAAAAUUGCAGGGGUCUAAAACCUUCUCCAAAUUGUUUCAUCCU RNA 2: GGGAAUGGAUCCACAUCUACGAAUUCAACAGGAUGAAACAAUUUGGAGAAGCGCAGAUCGGAAGAGCACACGU | 4.7 ± 1.1
21 | target 2 MT 5'PFS UUU 3'PFS UCA (mixed) RNA 1: CACCCGUGCAAAAUUGCAGGGGUCUAAAACCUUCUCCAAAUUGUUUCAUCCU RNA 2: GGGAAUGGAUCCACAUCUACGAAUUCUUUAGGAUGAAACAAUUUGGAGAAGUCAAGAUCGGAAGAGCACACGU | 8.7 ± 1
22 | target 2 MT 5'PFS GGU 3'PFS AGC (mixed) RNA 1: CACCCGUGCAAAAUUGCAGGGGUCUAAAACCUUCUCCAAAUUGUUUCAUCCU RNA 2: GGGAAUGGAUCCACAUCUACGAAUUCGGUAGGAUGAAACAAUUUGGAGAAGAGCAGAUCGGAAGAGCACACGU | 13.8 ± 1.9
23 | target 2 MT 5'PFS UUG 3'PFS UUA (mixed) RNA 1: CACCCGUGCAAAAUUGCAGGGGUCUAAAACCUUCUCCAAAUUGUUUCAUCCU RNA 2: GGGAAUGGAUCCACAUCUACGAAUUCUUGAGGAUGAAACAAUUUGGAGAAGUUAAGAUCGGAAGAGCACACGU | 29 ± 7
24 | target 2 MT 5'PFS UUU 3'PFS UCC (mixed) RNA 1: CACCCGUGCAAAAUUGCAGGGGUCUAAAACCUUCUCCAAAUUGUUUCAUCCU RNA 2: GGGAAUGGAUCCACAUCUACGAAUUCUUUAGGAUGAAACAAUUUGGAGAAGUCCAGAUCGGAAGAGCACACGU | 20.7 ± 1.9
25 | target 2 MT 5'PFS GGU 3'PFS AGA (mixed) RNA 1: CACCCGUGCAAAAUUGCAGGGGUCUAAAACCUUCUCCAAAUUGUUUCAUCCU RNA 2: GGGAAUGGAUCCACAUCUACGAAUUCGGUAGGAUGAAACAAUUUGGAGAAGAGAAGAUCGGAAGAGCACACGU | 10.6 ± 1.5
26 | target 2 MT 5'PFS GUU 3'PFS UGU (mixed) RNA 1: CACCCGUGCAAAAUUGCAGGGGUCUAAAACCUUCUCCAAAUUGUUUCAUCCU RNA 2: GGGAAUGGAUCCACAUCUACGAAUUCGUUAGGAUGAAACAAUUUGGAGAAGUGUAGAUCGGAAGAGCACACGU | 21 ± 2.3
27 | target 2 MT 5'PFS UUG 3'PFS AAA (mixed) RNA 1: CACCCGUGCAAAAUUGCAGGGGUCUAAAACCUUCUCCAAAUUGUUUCAUCCU RNA 2: GGGAAUGGAUCCACAUCUACGAAUUCUUGAGGAUGAAACAAUUUGGAGAAGAAAAGAUCGGAAGAGCACACGU | 6.7 ± 0.6
28 | target 2 MT 5'PFS UUG 3'PFS AAG (mixed) RNA 1: CACCCGUGCAAAAUUGCAGGGGUCUAAAACCUUCUCCAAAUUGUUUCAUCCU RNA 2: GGGAAUGGAUCCACAUCUACGAAUUCUUGAGGAUGAAACAAUUUGGAGAAGAAGAGAUCGGAAGAGCACACGU | 9.6 ± 0.7
